Data: patent US20210145976A1

biological target: human serum albumin (human) (UniProt P02768); experiment: screening ELISA
Sequence (P02768 25-609 limits assumed): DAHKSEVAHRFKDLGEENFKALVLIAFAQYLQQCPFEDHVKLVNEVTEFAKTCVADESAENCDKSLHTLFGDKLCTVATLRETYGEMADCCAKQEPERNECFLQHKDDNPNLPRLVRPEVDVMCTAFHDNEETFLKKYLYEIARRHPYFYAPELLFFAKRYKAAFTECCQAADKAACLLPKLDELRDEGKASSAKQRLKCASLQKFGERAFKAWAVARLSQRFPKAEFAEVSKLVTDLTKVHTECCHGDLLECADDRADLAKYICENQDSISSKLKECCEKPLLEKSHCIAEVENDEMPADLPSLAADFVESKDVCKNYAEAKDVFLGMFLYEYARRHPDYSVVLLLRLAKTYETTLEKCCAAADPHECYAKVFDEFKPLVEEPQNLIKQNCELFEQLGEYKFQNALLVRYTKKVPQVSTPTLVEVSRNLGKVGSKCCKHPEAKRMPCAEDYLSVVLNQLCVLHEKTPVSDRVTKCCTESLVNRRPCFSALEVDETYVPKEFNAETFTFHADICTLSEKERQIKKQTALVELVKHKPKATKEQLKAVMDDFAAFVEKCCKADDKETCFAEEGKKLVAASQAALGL

Row | Binder | HSA
1 | SEQ ID NO 171 (designed binder) MLPAPKNLVVSRVTEDSARLSWTAPDAAFDSFAIRYLEWWDVGEAIVLTVPGSERSYDLTGLKPGTEYLVEIKGVKGGKFSYPLSAIFTT | 1900
2 | SEQ ID NO 43 (designed binder) MLPAPKNLVVSRVTEDSARLSWTAPDAAFDSFYIEYYESYPGGEAIVLTVPGSERSYDLTGLKPGTEYDVYIYGVKGGYWSRPLSAIFTT | 8160
3 | SEQ ID NO 45 (designed binder) MLPAPKNLVVSRVTEDSARLSWTAPDAAFDSFAIYYLESYPEGEAIVLTVPGSERSYDLTGLKPGTEYWVGIDGVKGGTWSSPLSAIFTT | 2880
4 | SEQ ID NO 160 (designed binder) MLPAPKNLVVSRVTEDSARLSWTAPDAAFDSFNIAYGEWRQHGEAIVLTVPGSERSYDLTGLKPGTEYDVFIDGVKGGNLSWPLSAIFTT | 3300
5 | SEQ ID NO 166 (designed binder) MLPAPKNLVVSRVTEDSARLSWTAPDAAFDSFTILYNEIQNVGEAIVLTVPGSERSYDLTGLKPGTEYDVWIEGVKGGELSWPLSAIFTT | 5050
6 | SEQ ID NO 168 (designed binder) MLPAPKNLVVSRVTEDSARLSWTTPDAAFDSFFIGYLEPYPPGEAIVLTVPGSERSYDLTGLKPGTEYVVSIQGVKGGKPSDPLSAIFTT | 1950
7 | SEQ ID NO 177 (designed binder) MLPAPKNLVVSRVTEDSARLSWTAPDAAFDSFFIGYLEPQPPGEAIVLTVPGSERSYDLTGLKPGTEYNVTIQGVKGGRASGPLSAIFTT | 2450
8 | SEQ ID NO 174 (designed binder) MLPAPKNLVVSRVTEDSARLSWTAPDAAFDSFFIGYLEPQPPGEAIVLTVPGSERSYDLTGLKPGTEYKVVIQGVKGGTPSEPLSAIFTT | 2200
9 | SEQ ID NO 161 (designed binder) MLPAPKNLVVSRVTEDSARLSWTAPDAAFDSFTIRYWEELPTGEAIVLTVPGSERSYDLTGLKPGTEYTVEIFGVKGGYLSRPLSAISTT | 5050
10 | SEQ ID NO 44 (designed binder) MLPAPKNLVVSRVTEDSARLSWTAPDAAFDSFYIEYYESLPDGEAIVLTVPGSERSYDLTGLKPGTEYAVYIYGVKGGYYSRPLSAIFTT | 3920
11 | SEQ ID NO 170 (designed binder) MLPAPKNLVVSRVTEDSARLSWTAPDAAFDSFFIGYPEYPATGEAIVLTVPGSERSYDLTGLKPGTEYFVDINGVKGGSLSYPLSAIFTT | 16800
12 | SEQ ID NO 172 (designed binder) MLPAPKNLVVSRVTEDSARLSWTAPDAAFDSFPIEYDEWWALGEAITLIVPASERSYDLTGLKPGTEYVVKIHGVKGGQRSYPLIAFFTT | 3700
13 | SEQ ID NO 162 (designed binder) MLPAPKNLVVSRVTEDSARLSWTAPDAAFDSFHIAYEEATTYGEAIFLRVPGSERSYDLTGLKPGTEYDVWIEGVKGGTISGPLSAIFTT | 1850
14 | SEQ ID NO 173 (designed binder) MLPAPKNLVVSRVTEDSARLSWTAPDAAFDSFTIHYRELYVQAIVLTVPGSERSYDLTGLKPGTEYLVMIPGVKGGPTSVPLSAIFTT | 20800
15 | SEQ ID NO 159 (designed binder) MLPAPKNLVVSRVTEDSARLSWTAPDAAFDSFLIPYAETSPSGEAIVLTVPGSERSYDLTGLKPGTEYSVLIHGVKGGRNSDPLSAIFTT | 1950
16 | SEQ ID NO 175 (designed binder) MLPAPKNLVVSRVTEDSARLSWTAPDAAFDSFFIGYLEPQPPGEAIVLTVPGSERSYDLTGLKPGTEYSVVIQGVKGGFPSDPLSAIFTT | 1600
17 | SEQ ID NO 176 (designed binder) MLPAPKNLVVSRVTEDSARLSWTAPDAAFDSFPIAYAEPRPDGEAIVLTVPGSERSYDLTGLKPGTEYSVGIHGVKGGHDSSPLSAIFTT | 10400
18 | SEQ ID NO 165 (designed binder) MLPARKNLVVSRVTEDSARLSWTAPDAAFDSFFIPYAEPSPTGEAIVLTVPGSERSYDLTGLKPGTEYSVLIHGVKGGHLSDPLSAISTT | 65200
19 | SEQ ID NO 178 (designed binder) MLPAPKNLVVSRVTEDSARLSWTAPDAAFDSFDIAYAEPIPRGEAIVLTVPGSERSYDLTGLKPGTEYSVLIHGVKGGRRSVPLSAIFTT | 2250
20 | SEQ ID NO 46 (designed binder) MLPAPKNLVVSRVTEDSARLSWTAPDAAFDSFTIEYFEFTGTGEAIVLTVPGSERSYDLTGLKPGTEYYVSIYGVKGGLLSAPLSAIFTT | 3040

Next, values leading:

Row | HSA | Binder
21 | 14400 | SEQ ID NO 199 (designed binder) MLPAPKNLVVSRVTEDSARLSWTAPDAAFDSFGIRYFEWWDLGEAIVLTVPGSERSYDPTGLKPGTEYNVTIQGVKGGFPSMPLSAIFTT
22 | 2100 | SEQ ID NO 200 (designed binder) MLPAPKNLVVSRVTEDSARLSWTAPDAAFDSFYIEYYEWMHTGEAIVLTVPGSERSYDLTGLKPGTEYSVYIYGVKGGYPSSPLSAIFTT
23 | 3050 | SEQ ID NO 198 (designed binder) MLPAPKNLVVSRVTEDSARLSWTAPDAAFDSFLIAYNEDRKFGEAIVLTVPGSERSYDLTGLKPGTEYDVWIEGVKGGSLSFPLSAIFTT
24 | 4100 | SEQ ID NO 192 (designed binder) MLPAPKNLVVSRVTEDSARLSWTALDAAFDSFFIGYLEPQPPGEAIVLTVPGSERSYDLTGLKPGTEYNVTIQGVKGGFPSMPLSAIFTT
25 | 2950 | SEQ ID NO 182 (designed binder) MLPAPKNLVVSRVTEDSARLSWTAPDAAFDSFFIGYLEPYPPGEAIVLTVPGSERSYDLTGLKPGTEYVVSIQGVKGGTPSQPLSAIFTT
26 | 67500 | SEQ ID NO 189 (designed binder) MLPAPKNLVVSRVTEDSARLSWTAPDAAFDSFHEWVYFGEAIVLTVPGSERSYDLTGLKPGTEYFVDIWGVKGGTVSKPLSAIFTT
27 | 90200 | SEQ ID NO 195 (designed binder) MLPAPKNLVVSRVTEDSARLSWTAPDAAFDSFPIEYDEIPFWGEAIVLTVPGSERSYDLTGLKPGTEYRVWIHGVKGGNSSWPLSAIFTT
28 | 34600 | SEQ ID NO 196 (designed binder) MLPAPKNLVVSRVTEDSARLSWTAPDAAFDSFNIHYVEWWVLGEAIVLTVPGSERSYDLTGLKPGTEYPVYIYGVKGGPKSIPLSAIFTT
29 | 9950 | SEQ ID NO 185 (designed binder) MLPAPKNLVVSRVTEDSARLSWTAPDAAFDSFEIDYDELAIYGEAIVLTVPGSERSYDLTGLKPGTEYGVMIIGVKGGLPSDPLSAIFTT
30 | 17800 | SEQ ID NO 194 (designed binder) MLPAPKNLVVSRVTEDSARLSWTAPDAAFDSFEIDYDELAIYGEAIVLTVPGSERSYDLTGLKPGTEYRVFIYGVKGGWTSWPLSTIFTT
31 | 33500 | SEQ ID NO 180 (designed binder) MLPAPKNLVVSRVTEDSARLSWTAPDAAFDSFEISYYEMRGYGEAIVLTVPGSERSYDLTGLKPGTEYSVLIHGVEGGDYSSPLSAISTT
32 | 2500 | SEQ ID NO 193 (designed binder) MLPAPKNLVVSRVTEDSARLSWTAPDAAFDSFTIWYAEAVGNGEAIVLTVPGSERSYDLTGLKPGTEYWVDIWGVKGGEFSSPLSAIFTT
33 | 18900 | SEQ ID NO 197 (designed binder) MLPAPKNLVVSRVTEDSARLSWTAPDAAFDSFKIDYLEINDNGEAIVLTVPGSERSYDLTGLKPGTEYPVYIWGVKGGYPSSPLSAIFTT
34 | 34000 | SEQ ID NO 191 (designed binder) MLPAPENLVVSRVTEDSARLSWTAPDAAFDSFEITYEENWRRGEAIVLTVPGSERSYDLTGPKPGTEYIVIIQGVKGGAESWPLSAIFTT
35 | 74700 | SEQ ID NO 179 (designed binder) MLPAPKNLVVSRVTEDSARLSWTAPDAAFDSFYIAYAEPRPDGEAIVLTVPGSERSYDLTGLKPGTEYPVPIPGVKGGPGSSPLSAIFTT
36 | 1850 | SEQ ID NO 186 (designed binder) MLPAPKNLVVSRVTEDSARLSWTAPDAAFDSFFIGYLESAEAIVLTVPGSERSYDLTGLKPGTEYLVTIQGVKGGIASDPLSAIFTT
37 | 4900 | SEQ ID NO 190 (designed binder) MLPAPKNLVVSRVTEDSARLSWTAPDAAFDSFFIGYPEYPATGEAITLFVPGSERSYDLTGLKPGTEYNVVIQGVKGGRPSNPLVVAFTT
38 | 3350 | SEQ ID NO 188 (designed binder) MLPAPKNLVVSRVTEDSARLSWTAPDAAFDSFLIPYAETSPSGEAIVLTVPGSERSYDLTGLKPGTEYSVLIHGVKGGKLSLPLSAIFTT
39 | 6000 | SEQ ID NO 181 (designed binder) MLPAPKNLVVSHVTEDSARLSWTAPDAAFDSFPIAYAEPRPDGEAIVLTVPGSERSYDLTGLKPGTEYSVLIHGVKGGLLSSPLSAIFTT
40 | 10700 | SEQ ID NO 183 (designed binder) MLPAPKNLVVSRVTEDSARLSWTAPDAAFDSFLIPYAETSPSGEAIVLTVPGSERSYDLTGLKPGTEYSVLIHGVKGGRPSNPLVAAFTT
41 | 7250 | SEQ ID NO 187 (designed binder) MLPAPKNLVVSRVTEDSARLSWTAPDAAFDSFVIEYFEFVGYGEAIVLTVPGSERSYDLTGLKPGTEYSVGIYGVKGGKLSPPLSAIFTT
